± gives the standard deviation of the averaged measurements.
Assays:
Experiment in all cases: protein stability index of tFT-peptide fusion (C-terminal peptide) (PSI (0-1 scale)); higher = more stable (slower turnover)
Saccharomyces cerevisiae [1] = conditions: temperature: 30 C
Method: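 MPS profiling in S. cerevisiae of the yeast C-terminome library: the last 12 aa of each annotated ORF are fused to the C-terminus of a sfGFP-mCherry timer, after a GGGS linker. Cells are FACS-sorted into 8 mCherry/sfGFP bins and deep-sequenced. PSI runs from 0 (unstable) to 1 (stable); wild type and das1Δ backgrounds, two technical replicates each.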

Saccharomyces cerevisiae [2] = conditions: genetic background: wild type; temperature: 30 C
Saccharomyces cerevisiae [3] = system: Saccharomyces cerevisiae
Method: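 MPS profiling in S. cerevisiae of the tFT-X12 degron library: putative degron peptides plus stable controls, 12 aa, fused to the C-terminus of a sfGFP-mCherry timer. Cells are FACS-sorted into 8 mCherry/sfGFP bins and deep-sequenced. PSI runs from 0 (unstable) to 1 (stable). Backgrounds are wild type, das1Δ and doa10Δ at 30 °C, and wild type, das1Δ, cdc34-1 and cdc53-1 at 37 °C; 2-3 technical replicates each.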

[4] = genetic background: das1 deletion
[5] = genetic background: cdc34-1, temperature: 37 C
[6] = genetic background: cdc53-1, temperature: 37 C
[7] = genetic background: das1 deletion, temperature: 30 C
[8] = genetic background: das1 deletion, temperature: 37 C
[9] = genetic background: doa10 deletion, temperature: 30 C
[10] = genetic background: wild type, temperature: 30 C
[11] = genetic background: wild type, temperature: 37 C

Sequence	protein stability index (Saccharomyces cerevisiae [1]; [4])	protein stability index (Saccharomyces cerevisiae [1]; genetic background: wild type)	protein stability index (Saccharomyces cerevisiae [2])	protein stability index (Saccharomyces cerevisiae [3]; [5])	protein stability index (Saccharomyces cerevisiae [3]; [6])	protein stability index (Saccharomyces cerevisiae [3]; [7])	protein stability index (Saccharomyces cerevisiae [3]; [8])	protein stability index (Saccharomyces cerevisiae [3]; [9])	protein stability index (Saccharomyces cerevisiae [3]; [10])	protein stability index (Saccharomyces cerevisiae [3]; [11])
NSLTSLSIYAFL [YEL018C-A C-terminal 12 aa]	0.7094 ± 0.0019	0.685 ± 0.022								
VTRAAESLGFTV [MIP6 C-terminal 12 aa]	0.6997 ± 0.0036	0.69562 ± 4.2e-05								
QVTAVVVSYQGV [ATG11 C-terminal 12 aa]	0.5882 ± 0.0024	0.5999 ± 0.0039								
FVYKGVRKPKRN [SEN15 C-terminal 12 aa]	0.752 ± 0.033	0.778 ± 0.1								
LIPELYSVLDGF [YDL007C-A C-terminal 12 aa]	0.7449 ± 0.0037	0.74 ± 0.051								
TRKWANAAKGMP [YLR407W C-terminal 12 aa]	0.6889 ± 0.0067	0.727 ± 0.012								
ISTAPEQMMFLP [MSG5 C-terminal 12 aa]	0.7169 ± 0.0058	0.7155 ± 0.0068								
NYFIITCIGIIM [YPL261C C-terminal 12 aa]	0.228 ± 0.029	0.247 ± 0.0067								
SEGLQFLQREKK [MSE1 C-terminal 12 aa]	0.711 ± 0.011	0.681 ± 0.011								
CLCLINLCCDVF [YDR034W-B C-terminal 12 aa]	0.267 ± 0.0034	0.295 ± 0.0068								
ARIWKYKKIAPN [TUP1 C-terminal 12 aa]	0.726 ± 0.0075	0.706 ± 0.0071								
KAGREELERVNV [QCR8 C-terminal 12 aa]	0.688 ± 0.026	0.685 ± 0.015								
GYAKTWSIASAN [CTT1 C-terminal 12 aa]	0.714 ± 0.011	0.674 ± 0.028								
KHVGKGCGYSYH [STP4 C-terminal 12 aa]	0.696 ± 0.024	0.6985 ± 0.0052								
RRNRGTPVKYTR [DOT1 C-terminal 12 aa]	0.6965 ± 0.0024	0.7 ± 0.016								
VPKSLYGVTRTR [GAT3 C-terminal 12 aa]	0.697 ± 0.008	0.686 ± 0.032								
IKTIVEAMDVLS [PCC1 C-terminal 12 aa]	0.67028 ± 4.3e-05	0.656 ± 0.025								
FVVVGLGLLCLA			0.473 ± 0.013	0.492 ± 0.0066	0.565 ± 0.011	0.362 ± 0.027	0.569 ± 0.0068	0.257 ± 0.015	0.305 ± 0.02	0.491 ± 0.014
QCRLPRPPLSLP			0.436 ± 0.022	0.676 ± 0.017	0.7414 ± 0.0062	0.651 ± 0.022	0.7354 ± 0.0058	0.672 ± 0.032	0.692 ± 0.009	0.693 ± 0.0099
SRVCVLTGISCA			0.473 ± 0.018	0.568 ± 0.011	0.606 ± 0.016	0.416 ± 0.029	0.6023 ± 0.0038	0.387 ± 0.013	0.421 ± 0.011	0.572 ± 0.013
VVDIFLFFLFVC			0.203 ± 0.015	0.171 ± 0.0036	0.192 ± 0.027	0.243 ± 0.013	0.351 ± 0.021	0.186 ± 0.0069	0.145 ± 0.0086	0.216 ± 0.048
TFRVLFSVALLV			0.212 ± 0.086	0.172 ± 0.0042	0.216 ± 0.0069	0.259 ± 0.024	0.3436 ± 0.0022	0.1804 ± 0.00079	0.182 ± 0.021	0.2319 ± 0.0022

Sequence	protein stability index (Saccharomyces cerevisiae [1]; [4])	protein stability index (Saccharomyces cerevisiae [1]; genetic background: wild type)	protein stability index (Saccharomyces cerevisiae [2])	protein stability index (Saccharomyces cerevisiae [3]; [5])	protein stability index (Saccharomyces cerevisiae [3]; [6])	protein stability index (Saccharomyces cerevisiae [3]; [7])	protein stability index (Saccharomyces cerevisiae [3]; [8])	protein stability index (Saccharomyces cerevisiae [3]; [9])	protein stability index (Saccharomyces cerevisiae [3]; [10])	protein stability index (Saccharomyces cerevisiae [3]; [11])
LPLSPPPLPSSR			0.432 ± 0.032	0.6697 ± 0.0028	0.72639 ± 0.00044	0.634 ± 0.019	0.704 ± 0.014	0.639 ± 0.022	0.663 ± 0.032	0.675 ± 0.018
CVFGFACRVLVV			0.338 ± 0.017	0.288 ± 0.012	0.32639 ± 4.3e-05	0.281 ± 0.031	0.407 ± 0.0012	0.241 ± 0.011	0.278 ± 0.02	0.364 ± 0.01
RVWTTVFIIRAT			0.333 ± 0.062	0.595 ± 0.032	0.609 ± 0.055	0.493 ± 0.03	0.6146 ± 0.0043	0.216 ± 0.023	0.229 ± 0.024	0.424 ± 0.023
FPFPLSSFLLLY			0.4195 ± 0.0039	0.385 ± 0.015	0.401 ± 0.018	0.41 ± 0.032	0.516 ± 0.011	0.415 ± 0.028	0.331 ± 0.019	0.444 ± 0.0087
CYKYTYVKNNMI			0.249 ± 0.051	0.689 ± 0.042	0.7646 ± 0.0044	0.642 ± 0.038	0.753 ± 0.014	0.197 ± 0.013	0.231 ± 0.044	0.555 ± 0.014
CFFLSFNVFRLF			0.148 ± 0.05	0.465 ± 0.059	0.559 ± 0.011	0.498 ± 0.034	0.633 ± 0.022	0.107 ± 0.0097	0.114 ± 0.033	0.113 ± 0.0019
CFCSFQFVRLWV			0.452 ± 0.062	0.593 ± 0.0065	0.6165 ± 0.0048	0.49 ± 0.028	0.6443 ± 0.0064	0.455 ± 0.03	0.444 ± 0.011	0.58 ± 0.0096
TSRRPFVLVMWL			0.485 ± 0.015	0.504 ± 0.0061	0.599 ± 0.0078	0.405 ± 0.04	0.6229 ± 0.0049	0.363 ± 0.011	0.388 ± 0.035	0.576 ± 0.027
EGGGGRFWVCVG			0.425 ± 0.028	0.676 ± 0.044	0.732 ± 0.012	0.631 ± 0.0097	0.748 ± 0.014	0.258 ± 0.0033	0.298 ± 0.034	0.596 ± 0.018
VRFGYGRIVWDI			0.5 ± 0.1	0.706 ± 0.035	0.789 ± 0.048	0.6514 ± 0.0055	0.808 ± 0.018	0.472 ± 0.015	0.496 ± 0.032	0.68 ± 0.016
YTQKFTFYGLPA			0.027 ± 0.023	0.701 ± 0.035	0.721 ± 0.013	0.639 ± 0.038	0.727 ± 0.013	0.618 ± 0.033	0.616 ± 0.016	0.708 ± 0.02
GAVRRWGGVSFV			0.259 ± 0.068	0.626 ± 0.041	0.707 ± 0.026	0.643 ± 0.011	0.707 ± 0.032	0.662 ± 0.028	0.664 ± 0.0068	0.679 ± 0.015
VWSCILPMVYVW			0.203 ± 0.0046	0.111 ± 0.066	0.109 ± 0.0066	0.156 ± 0.022	0.1639 ± 0.00068	0.135 ± 0.016	0.158 ± 0.0067	0.157 ± 0.011
WLCLGLVVGLFL			0.433 ± 0.041	0.44 ± 0.0069	0.488 ± 0.013	0.383 ± 0.029	0.459 ± 0.0058	0.339 ± 0.031	0.362 ± 0.017	0.47 ± 0.015
FVWVVRMLVFVP			0.276 ± 0.017	0.178 ± 0.0058	0.2493 ± 0.00099	0.187 ± 0.025	0.383 ± 0.023	0.165 ± 0.008	0.16 ± 0.025	0.3 ± 0.0077
ARKIGKVIPKLG			0.43 ± 0.027	0.686 ± 0.021	0.732 ± 0.037	0.634 ± 0.043	0.737 ± 0.02	0.292 ± 0.0097	0.341 ± 0.039	0.599 ± 0.011
RCTLFVNPVCVH			0.349 ± 0.014	0.251 ± 0.018	0.304 ± 0.008	0.242 ± 0.034	0.402 ± 0.025	0.197 ± 0.011	0.241 ± 0.015	0.345 ± 0.017
KKIKKYTRKLKI			0.455 ± 0.048	0.707 ± 0.0088	0.765 ± 0.014	0.673 ± 0.05	0.719 ± 0.053	0.323 ± 0.014	0.383 ± 0.02	0.63 ± 0.0069
LVCLTPPPSPFS			0.412 ± 0.033	0.689 ± 0.021	0.799 ± 0.065	0.323 ± 0.04	0.5136 ± 0.0026	0.313 ± 0.009	0.332 ± 0.016	0.486 ± 0.021
YHDKLRAIEKFF			0.331 ± 0.065	0.669 ± 0.03	0.725 ± 0.0075	0.635 ± 0.018	0.74 ± 0.03	0.199 ± 0.019	0.219 ± 0.04	0.49 ± 0.0052
GVSLRVFVVSVC			0.212 ± 0.053	0.137 ± 0.02	0.162 ± 0.015	0.219 ± 0.02	0.316 ± 0.0044	0.108 ± 0.005	0.122 ± 0.018	0.142 ± 0.0047
GFGDKVPWRWVI			0.227 ± 0.045	0.606 ± 0.037	0.759 ± 0.022	0.657 ± 0.026	0.7816 ± 0.0045	0.124 ± 0.01	0.135 ± 0.0096	0.244 ± 0.0061
